From article PMC2810336, “Mutational Analysis of Highly Conserved Residues in the Phage PhiC31 Integrase Reveals Key Amino Acids Necessary for the DNA Recombination”

Biological target: T1, phiC31 integrase G182A/F183A (Streptomyces phage phiC31, UniProt Q38194 1-613, G182A;F183A)
T1 sequence: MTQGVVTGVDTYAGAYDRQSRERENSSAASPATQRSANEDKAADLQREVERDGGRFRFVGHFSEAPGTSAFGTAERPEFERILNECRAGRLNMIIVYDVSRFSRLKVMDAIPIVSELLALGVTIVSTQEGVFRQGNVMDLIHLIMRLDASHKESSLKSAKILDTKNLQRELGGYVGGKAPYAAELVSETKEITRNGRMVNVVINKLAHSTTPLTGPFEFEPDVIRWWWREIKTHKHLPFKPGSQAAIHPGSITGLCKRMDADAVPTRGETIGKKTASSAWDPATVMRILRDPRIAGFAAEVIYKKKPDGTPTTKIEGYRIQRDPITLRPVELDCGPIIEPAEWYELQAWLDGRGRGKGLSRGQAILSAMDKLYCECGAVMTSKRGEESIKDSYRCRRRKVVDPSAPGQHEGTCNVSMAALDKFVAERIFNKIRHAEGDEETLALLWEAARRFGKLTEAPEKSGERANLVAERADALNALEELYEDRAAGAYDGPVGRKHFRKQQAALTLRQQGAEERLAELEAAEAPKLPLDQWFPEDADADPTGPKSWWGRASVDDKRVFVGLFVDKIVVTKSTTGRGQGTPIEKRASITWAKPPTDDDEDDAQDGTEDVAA
Experiment: EMSA; 400 nM protein; 50 ng/ul Poly (competitor (so in the source)), 0.05% NP-40, 50 mM KCl, 5 mM MgCl2, 10 mM EDTA, 20 ul, 0.4 ng (16 fmol) probe; 30 min at room temperature (Methods) or 30 C; pH not stated; synapsis 2 h at 30 C
Conditions: protein: recombinant; tags: C-terminal His; chain copies: 2; label: biotin, double-strand end-labeled; blunt

B1: attB 41 bp (dsDNA)
DNA 1: CGGGTGCCAGGGCGTGCCCTTGGGCTCCCCGGGCGCGTACT
DNA 2: AGTACGCGCCCGGGGAGCCCAAGGGCACGCCCTGGCACCCG
With B1 as the binder, how does the binding signal read?
The binding signal was 0 % of WT.
